Assay results as given in the supplement of paper PMC9112550, “Optimization of the antimicrobial peptide Bac7 by deep mutational scanning” (BMC Biology, 2022).

Tested on: Escherichia coli TOP10
Experiment: shrunken log2 fold change of peptide-encoding DNA abundance (4.5 h post-induction vs induction); higher = less antimicrobial activity (less host growth inhibition)
Settings: time post-induction: 4.5 h; library: site-saturation at positions 5, 18, 19, 20
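Also: peptides expressed intracellularly from a pBAD plasmid library in pooled LB shake-flask culture, induced with 0.3% L-arabinose, DNA abundance read by NGS, three biological replicates, DESeq2 with apeglm shrinkage.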

Sequence | shrunken log2 fold change
RRIRVRPPRLPRPRPRPINRPRP | -0.239
RRIRHRPPRLPRPRPRPYGDPRP | -0.808
RRIRQRPPRLPRPRPRPHIPPRP | -0.0245
RRIRHRPPRLPRPRPRPAKRPRP | -0.132
RRIRERPPRLPRPRPRPTRPPRP | 0.461
RRIRDRPPRLPRPRPRPFRIPRP | 0.0432
RRIRCRPPRLPRPRPRPYRGPRP | -0.992
RRIRFRPPRLPRPRPRPMRRPRP | 0.542
RRIRFRPPRLPRPRPRPNCHPRP | -0.313
RRIRPRPPRLPRPRPRPYAPPRP | -0.207
RRIRHRPPRLPRPRPRPRCCPRP | -0.079
RRIRYRPPRLPRPRPRPKCSPRP | -0.433
RRIRIRPPRLPRPRPRPYEWPRP | -0.00783
RRIRCRPPRLPRPRPRPFIQPRP | -1.04
RRIRLRPPRLPRPRPRPANKPRP | -0.0711
RRIRKRPPRLPRPRPRPQYNPRP | -0.67
RRIRFRPPRLPRPRPRPWKHPRP | -0.587
RRIRCRPPRLPRPRPRPFQPPRP | -0.281
RRIRFRPPRLPRPRPRPDSDPRP | -0.0137
RRIRSRPPRLPRPRPRPPTHPRP | 0.197
RRIRKRPPRLPRPRPRPFGQPRP | 0.783
RRIRQRPPRLPRPRPRPRIVPRP | 0.01
RRIRRRPPRLPRPRPRPRKPPRP | 0.153
RRIRSRPPRLPRPRPRPQPHPRP | 0.17
RRIRSRPPRLPRPRPRPNLNPRP | -0.307

Sequence | shrunken log2 fold change
RRIRVRPPRLPRPRPRPGAEPRP | 0.271
RRIRARPPRLPRPRPRPLECPRP | 0.184
RRIRPRPPRLPRPRPRPKAVPRP | 0.0993
RRIRQRPPRLPRPRPRPAFRPRP | 0.204
RRIRTRPPRLPRPRPRPNWGPRP | -0.0445
RRIRCRPPRLPRPRPRPKLKPRP | -0.16
RRIRDRPPRLPRPRPRPFCMPRP | 0.00343
RRIRTRPPRLPRPRPRPAQTPRP | 0.712
RRIRVRPPRLPRPRPRPCDEPRP | -0.488
RRIRIRPPRLPRPRPRPVSQPRP | -0.0669
RRIRPRPPRLPRPRPRPGVFPRP | 0.144
RRIRTRPPRLPRPRPRPCHLPRP | 0.0039
RRIRTRPPRLPRPRPRPLGDPRP | -0.109
RRIRRRPPRLPRPRPRPNHEPRP | -0.0399
RRIRERPPRLPRPRPRPLSPPRP | -0.17
RRIRGRPPRLPRPRPRPGQGPRP | 0.0965
RRIRMRPPRLPRPRPRPICTPRP | 0.153
RRIRRRPPRLPRPRPRPDGEPRP | -0.0341
RRIRLRPPRLPRPRPRPLGTPRP | 0.18
RRIRQRPPRLPRPRPRPTQLPRP | 0.375
RRIRFRPPRLPRPRPRPECDPRP | 0.248
RRIRHRPPRLPRPRPRPMECPRP | -0.427
RRIRCRPPRLPRPRPRPADKPRP | -0.0716
RRIRYRPPRLPRPRPRPNAQPRP | -0.0122
RRIRERPPRLPRPRPRPDPVPRP | 0.181

Sequence | shrunken log2 fold change
RRIRVRPPRLPRPRPRPLIIPRP | -0.445
RRIRGRPPRLPRPRPRPLLAPRP | 2.21
RRIRSRPPRLPRPRPRPGEHPRP | 0.0053
RRIRDRPPRLPRPRPRPSGGPRP | 0.356
RRIRCRPPRLPRPRPRPFEMPRP | -0.36
RRIRARPPRLPRPRPRPAMNPRP | 0.121
RRIRCRPPRLPRPRPRPMIKPRP | -0.497
RRIRARPPRLPRPRPRPRSNPRP | 0.0752
RRIRIRPPRLPRPRPRPLNQPRP | -0.195
RRIRWRPPRLPRPRPRPTAKPRP | 0.0717
RRIRSRPPRLPRPRPRPMNNPRP | -0.479
RRIRKRPPRLPRPRPRPWHFPRP | 0.169
RRIRCRPPRLPRPRPRPGVWPRP | 0.537
RRIRRRPPRLPRPRPRPMWGPRP | 0.0327
RRIRYRPPRLPRPRPRPFQAPRP | -0.464
RRIRARPPRLPRPRPRPFRQPRP | 0.0566
RRIRVRPPRLPRPRPRPGPTPRP | 0.448
RRIRSRPPRLPRPRPRPAHYPRP | -0.131
RRIRTRPPRLPRPRPRPHPMPRP | -0.167
RRIRYRPPRLPRPRPRPQLFPRP | -0.745
RRIRLRPPRLPRPRPRPMKGPRP | 0.0527
RRIRGRPPRLPRPRPRPGTGPRP | 0.84
RRIRSRPPRLPRPRPRPASWPRP | 0.363
RRIRLRPPRLPRPRPRPGVSPRP | -0.161
RRIRHRPPRLPRPRPRPWKKPRP | -0.0699
